{"source": "paper PMC7505563", "molecular_target": "T1, MatP, tag cleaved (Escherichia coli, UniProt P0A8N0 1-150)", "T1 sequence": "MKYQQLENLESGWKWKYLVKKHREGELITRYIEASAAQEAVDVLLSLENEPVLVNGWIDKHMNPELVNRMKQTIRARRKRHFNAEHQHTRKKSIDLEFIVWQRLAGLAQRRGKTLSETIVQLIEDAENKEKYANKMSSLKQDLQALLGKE", "assay": "crystal structure"}
{"binder": "matS 19mer (dsDNA) DNA 1: TTCGTGACATTGTCACGAA DNA 2: TTCGTGACAATGTCACGAA", "values": [{"measurement": "binding result", "value": "binds"}]}
